These results are taken from a protein production outcome set (Wang et al. 2014).

The nature of this data set: label from the status in PepcDB records.
In the case of “MGNTIRALVAFIPADRCQNYVVRDLREMPLDKMVDLSGSQLRRFPLHVCSFRELVKLYLSDNHLNSLPPELGQLQNLQILALDFNNFKALPQVVCTLKQLCILYLGNNKLCDLPSELSLLQNLRTLWIEANCLTQLPDVVCELSLLKTLHAGSNALRLLPGQLRRLQELRTIWLSGNRLTDFPTVLLHMPFLEVIDVDWNSIRYFPSLAHLSSLKLVIYDHNPCRNAPKVAKGVRRVGRWAEETPEPDPRKARRYALVREESQELQAPVPLLPPTNS”, the protein production result was “failed”. With “MYYGFDIGGTKIALGVFDSTRRLQWEKRVPTPHTSYSAFLDAVCELVEEADQRFGVKGSVGIGIPGMPETEDGTLYAANVPAASGKPLRADLSARLDRDVRLDNDANCFALSEAWDDEFTQYPLVMGLILGTGVGGGLVLNGKPITGQSYITGEFGHMRLPVDALTLMGFDFPLRRCGCGQMGCIENYLSGRGFAWLYQHYYDQSLQAPEIIALWEQGDEQAHAHVERYLDLLAVCLGNILTIVDPDLLVIGGGLSNFTAITTQLAERLPRHLLPVARAPRIERARHGDAGGMRGAAFLHLTD”, the protein production result was “not failed”. Then “MSLTTMLEVAKRAGVSKATVSRVLSGNGYVSQETKDRVFQAVEESGYRPNLLARNLSAKSTQTLGLVVTNTLYHGIYFSELLFHAARMAEEKGRQLLLADGKHSAEEERQAIQYLLDLRCDAIMIYPRFLSVDEIDDIIDAHSQPIMVLNRRLRKNSSHSVWCDHKQTSFNAVAELINAGHQEIAFLTGSMDSPTSIERLAGYKDALAQHGIALNEKLIANGKWTPASGAEGVEMLLERGAKFSALVASNDDMAIGAMKALHERGVAVPEQVSVIGFDDIAIAPYTVPALSSVKIPVTEMIQEIIGRLIFMLDGGDFSPPKTFSGKLIRRDSLIAPSREGHHHHHH”, with “not failed”. In the case of “HPHIQLLKSNRELLVTHIRNTQCLVDNLLKNDYFSAEDAEIVCACPTQPDKVRKILDLVQSKGEEVSEFFLYLLQQLADAYVDLRPWLLEIGFS”, the protein production entry is listed as “not failed”. Under “MFCLMSKEYLSWDKFIVTKIPSSVKLDPIIYEYIKKDHLILDIGCGVGKVSLQLAFQGFYVEGIDINETGILAAQDSARKLNLADKAHFRVGDAKDLPYMDDKFDIVIMHGLLTIIVDNSDRNKIIQEAYRVLNPEGHLYIVDFGQTWHSDIYRERYLKDFPITKEEGSFLVYNKDTGEIEFISHHYTEKELIFLLVNNGFKIDYFRDFLLFSGFSFSLYIVQNNKILIILIYFFYLWEKETLQ” stands “failed”; under “MDIGRKRDVFLIILPALCAFALALIPTFRYTVPLTWDVYYHIHNATLYMGRGIVFWDPLTSAPHGRPLYYPPLFHIMLLFLSKITGLGFFTVSRFMQPVFAFLILLSFSYVSGKLYGPLAGFLTGMFLFSSLFFMRMMFPIPESLAMISIPLFVYGYYRSMECCSRLYPVLTGLLLGLMLMTHILSASIILAVVTLSTIVLYIGKYDIRPWNLLIILGSGLLLASVWYAPLIVKYGFVFRSPATSSLPLEGYITHLGVLLTILSLAGIVHAAGRREKKDVIMAVWTVFVLALTAAYLLGLKVLSDRILYFALFPMATLSANLFNSIRINNGKWSFYAIILLISLYCIYDGYSLASSIKLEVSDSELDIAEWFRYNGDHATVVVSDYHIQPAIVAVSGQPVSAGGYAPGTIRSINVEKYISSFNYTKHDIMRDRVGYIILDNEERTPPYSRLVYRNRDFSVYRVNV”, “failed”.

As to “MLRFAVLGHPVAHSLSPAMHAFALESLGLEGSYEAWDTPLEALPGRLKEVRRAFRGVNLTLPLKEAALAHLDWVSPEAQRIGAVNTVLQVEGRLFGFNTDAPGFLEALKAGGIPLKGPALVLGAGGAGRAVAFALREAGLEVWVWNRTPQRALALAEEFGLRAVPLEKAREARLLVNATRVGLEDPSASPLPAELFPEEGAAVDLVYRPLWTRFLREAKAKGLKVQTGLPMLAWQGALAFRLWTGLLPDPSGMEEAARRALGV”, the protein production result is “not failed”. Turning to “MAQAQTQGQEEEQKKKILIVVTHGPEDLDRTYAPLFMASISASMEYETSVFFMIKGPKLLDKKWQEEERKKGGNPFIHFFDMAKENGVKMYVCVQSLKDMCHMKEDDVVEGIELVGGSTLIDLTLEADRTLFF”, the protein production entry is “not failed”. Under “MRRLPTFGWALLVSIWAGLVGGAVIREPSVDLVPLYAVICQLLGLIAAYGTMRERSHILESVHRPGRVGMFIIILFFVMVPLTTVFALVLGDASVAGVATQWVSYLVGLGIALYVAFAGGFDRAWEKYT” stands “failed”; under “MALAFDEFGRPFIILREQDQKTRLKGIDAQKANISAGKAVARILRSSLGPKGMEKKCFKDLTEMSPYVSFFLLNLISLRSIPMALALNSGLQPIETLSAVKSQQIKRRTFHSTGLIATM”, “failed”.
